Kd and stoichiometry N (mol Tp34 per mol bLF) data for 1 molecule are collected here from article PMC3656001.

Assay [1] concerns the target bovine lactoferrin (bovine). Description: AUC; multi-signal sedimentation velocity (MSSV) with mass conservation and low-s constraints; mixture of 6.9 µM Tp34 and 2.3 µM bLF in solution, diluted from Buffer A into 20 mM Tris pH 7.5, 20 mM NaCl; 20°C, 50,000 rpm; interference + absorbance at 280 nm; Kd estimated from the reaction boundary molar ratio by effective particle theory, assuming sAB = 6.2 S.

Assay [2] concerns the target bovine lactoferrin (bovine). The assay is described as follows: AUC; follow-up multi-signal sedimentation velocity (MSSV) without constraints, conducted almost identically to a1 but with absorbance at 280 nm and 250 nm and no interference signal; Tp34/bLF mixture in solution.

B1: Tp34 from Treponema pallidum (natural protein)
chain: CGGGGEHQHGEEMMAAVPAPDAEGAAGFDEFPIGEDRDVGPLHVGGVYFQPVEMHPAPGAQPSKEEADCHIEADIHANEAGKDLGYGVGDFVPYLRVVAFLQKHGSEKVQKVMFAPMNAGDGPHYGANVKFEEGLGTYKVRFEIAAPSHDEYSLHIDEQTGVSGRFWSEPLVAEWDDFEWKGPQW
For the molecule B1, in assay [1], the Kd is 3.1 µM and the stoichiometry N (mol Tp34 per mol bLF) is 0.7. Also, in assay [2], the stoichiometry N (mol Tp34 per mol bLF) is 0.7.

As usually defined, the Kd is the equilibrium constant for the complex coming apart.
